# Test: yeast display, Sf9 membrane polyspecificity reagent, FACS + sequencing; frameworks hold sequencing errors
# Method in brief: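 Synthetic nanobody libraries on Saccharomyces cerevisiae BJ5465 were galactose-induced for 36–48 hours, stained 1 hour at 4 °C with 10% biotinylated, detergent-solubilized Sf9 membrane reagent and enriched on streptavidin microbeads. FACS then separated cells into low and high (top ~1%) gates by anti-HA (expression) and streptavidin (reagent binding) fluorescence. Genes were colony-PCR amplified, MiSeq 2 × 250 sequenced and CDR-length filtered. A clone's polyreactivity label is that of its gate of origin.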
row,Sequence,polyreactivity (PSR sort gate)
1,QVQLVESGGGLVQAGGSLRLSCAASGTTFVSNAMGWYRQAPGKERELVAAISKSGGSTYYADSVKGRFTISRDNAKNTVYLQMNSLKPEDTAVYYCAKYTAKSFYGQYDYWGQGTQVTVSS,high polyreactivity
2,QVQLVESGGGLVQAGGSLRLSCAASGTTFYYYAMGWYRQAPGKEREFVAAIRFSGSRTYYADSVKGRFPISRDNAKNTVYLQMNSLIPEDTAVYYCARATLPSVSYYRKLFDYWGQGTHVTVSS,high polyreactivity
3,QVQLVESGGGLVQAGGSLRLSCAASGTTIETYASGWYRQAPGKERELVATITSGGSTYYAYSVKGRFTISRDTAKITVYLQMNSLKPEDTSVYYCAAGRYGGKHVWYYYWGQGTQVTVSS,high polyreactivity
4,QVQLVESGGGLVQAGGSLRLSCAASGTYKYYAMGWYRHAPGKERELVAATNRGGSTNYADSVKGRFTISRDNAKNTVYLQMNSLKPEDTAVYYCAAERWYVRGRHYYYWGQGTQVTVSS,high polyreactivity
5,QVQLVESGGGLVQAGGSLRLSCAASGTYTNAMGWYRQAPGKERELVAAITSSGGSTYYADSVKGRFTISRDNAKNTVYLQMNSLKPEDTAVYYCAKPGVYEVSYTYGYWGQGTQVTVSS,low polyreactivity
6,QVQLVESGGGLVQAGGSLRLSCAASGVIFGAYAMGWYRQAPGKERELVAAISSRGTSTYYADSVKGRFTISRDNAKNTVYLQMNSLKPEDTAVYYCNVYYIPLRRYDYWGQGTQVTVSS,high polyreactivity
7,QVQLVESGGGLVQAGGSLRLSCAASGVIFKPSAMGWYRQAPGKERELVASISTGARTYYADSVKGRFTISRDTAKNTVYLQLNSLKPEDTAVYYCAAAYSRWITRYDYWGQGTQVTVSS,high polyreactivity
8,QVQLVESGGGLVQAGGSLRLSCAASGVIFYFNALGWYRQAPGKERELVAAISGGDNTYYADSVKGRFTISRDNAKNTVYLQMNSLKPEDTAVYYCAAKYRYGQNGYYLYGYWGQGTQVTVSS,low polyreactivity
9,QVQLVESGGGLVQAGGSLRLSCAASGVNAMGWYRPAPGKEREFVAAITSIGGSTYYADSVKGRFTISRDNAKNTVYLQMNSLKPEDTAVYYCNTDRGPVKVSPLYVSWGQGTQVTLSS,low polyreactivity
10,QVQLVESGGGLVQAGGSLRLSCAASGYAKGWYRQAPGKESELDAAITSNGGRTYYADSVKGRFTISRDNAKNTVYIQMNSLKPEDTAVYYCATRSGPHYKTRWTYDLGYWGQGSQVTVSS,low polyreactivity
11,QVQLVESGGGLVQAGGSLRLSCAASGYAMGWYRQAPGKERELVAAITRRGGSTYYADSVKGRFTISRDNAKNTVYLQMNSLKPEDTAVYYCAADNPSYNLWYGYWGQGTQVTVSS,low polyreactivity
12,QVQLVESGGGLVQAGGSLRLSCAASGYARGWYRQAPGKERELVAAITSGGSTNYADSVKGRFTISRDNAKNTVYLQMNSLKPEDTAVYYCAAAYSLYGHRYDYWGQGTQVTVSS,low polyreactivity
13,QVQLVESGGGLVQAGGSLRLSCAASGYGYVMGWYRQAPGKERELVAAISRSGGSTYYADSVKGRFTISRDNAKNTVYFQMNSLIPEDTAVYDCAARWPGAYHDYGYWGQVTQVTVSS,high polyreactivity
14,QVQLVESGGGLVQAGGSLRLSCAASGYIFALNAMGWYRPAPGKEWELVAAINDSGDSTYYADSVKGRFTISRDNAKNTVYLQMNSLKPEDTAVYYCAAGFSYEWCYPTFDYWGQGTQVTVSS,low polyreactivity
15,QVQLVESGGGLVQAGGSLRLSCAASGYIFASYAMGWYRPAPGKERELVAAISIGGNTNYADSVKGRFTISRDNAKNTVYLQMNSLKPEDTAVYYCAAKTPRYRYGYWRQGTQVTVSS,low polyreactivity
16,QVQLVESGGGLVQAGGSLRLSCAASGYIFATNAMGWYRQSPGKERELVAAITRSGGRTYYADSVKGRFTISRDNAKNTVYLQMNSLKPEDTAVYYCAAARPTNIYYYWGQGTQVTVSS,high polyreactivity
17,QVQLVESGGGLVQAGGSLRLSCAASGYIFATYAMGWYRQAPGKERELVAAISWSGGRTYYADSVKGRFTISRDNAKNTVYLQMNGLKPEVTAVYYCAAQSYSRMDYWGQGTQVTVSS,high polyreactivity
18,QVQLVESGGGLVQAGGSLRLSCAASGYIFAVYAMGWYRQAPGKEREFVAVITWRGGSTYYADSVKGRFTISRDNAKNTVYLQMNSLKPEDTAVYYCAADVYAQYDYWGQGTQVTVSS,high polyreactivity
19,QVQLVESGGGLVQAGGSLRLSCAASGYIFDGNAMGWYRQAPGKERELVAPITWTGGSTYYADSVKGRFTISRDNAKNTVYLQMNSLKPEDTAVYYCAKPYDPGPYHSSYRATDDYWGQGTQVTVSS,low polyreactivity
20,QVQLVESGGGLVQAGGSLRLSCAASGYIFDIYAMGWYRQAPGKERELVAVITRSGGGTYYADSVKGRFTISRDNAKNTVYFQMNSLKPEDTAVYYCAAESYVYGGSDYVYWGQGTEVTVSS,low polyreactivity
21,QVQLVESGGGLVQAGGSLRLSCAASGYIFDRNAMGWYRQAPGKERELLAAITKRGGITYYADSVKGRFTISRDNAKNTVYLQMNSLKPEDTAVYYCAADIGYYVYNDYDYWGQGTQVTVSS,low polyreactivity

row,Sequence,polyreactivity (PSR sort gate)
1,QVQLVESGGGLVQAGGSLRLSCAASGYIFDVYDMGWYRQAPGKERELVAAITDYADSVKGRFTISRDNAKNTVYLQMNSLKPEDTAVYYCAADTDVLKGTTGFEYWGQGTQVTVSS,low polyreactivity
2,QVQLVESGGGLVQAGGSLRLSCAASGYIFDWNAMGCYRQAPGKERELVAAISSGGRTNYADSVKGRFTISRDNAKNTVYLQMNSLKPEDTAVYYCNTGPYTFDSPEYYYWGQGTQVTVSS,low polyreactivity
3,QVQLVESGGGLVQAGGSLRLSCAASGYIFDYYAMGWYRQAPGKERELVAAISSSGGTTYYADSVKGRFTISRDNAKNTVYLQMNSLKPEDTEVYYCAARKSRWHRGYYYWGQGTQVTVSS,high polyreactivity
4,QVQLVESGGGLVQAGGSLRLSCAASGYIFDYYAMGWYRQAPGKERELVAGISRRGGSTYYADSVKGRFTISRDNAKNTVYLQMNSLKPEDTAVYYCAGLGDDATSYGYWGQGTQVTVSS,high polyreactivity
5,QVQLVESGGGLVQAGGSLRLSCAASGYIFENYALGWYRQAPGKERELVAALSTRGGSTYYADSVKGRFTISRDNAKNTVYLQMNSLKPEDTAVYYCAAADSTGYYYWGQGTQVTVSS,high polyreactivity
6,QVQLVESGGGLVQAGGSLRLSCAASGYIFFTYTMGWYRQAPGKERELVAAINGSVGSTYYADSVKGRFTISRDNAKNTVYLQMNSLKPEDTAVYYCAAEVVDFGYSYEWEDDYWGQGTQVTVSS,high polyreactivity
7,QVQLVESGGGLVQAGGSLRLSCAASGYIFGAYAMGWYRPAPGKERELVAGITASGDSTYYADSVKGRFTISRDNAKNTVYLQMNSLKPEDTAVYYCNAQPDIGLYDRQWKEPYEYWGQGTQVTVSS,low polyreactivity
8,QVQLVESGGGLVQAGGSLRLSCAASGYIFGDYVMGWYRQAPGKERELVAAISSSGDTNYADSVKGRFTISRDNAKNTVYLQMNSLKPEDTAVYYCAAVDWIGRVHGKPWGGDYWGQGTQVTVSS,low polyreactivity
9,QVQLVESGGGLVQAGGSLRLSCAASGYIFGNYAMGWYRQAPGKERELVADITWRGDSTYADSVKGRFTISRDNAKKTVYLQMNSLKPEDTAVYYCAADIATEYWYTGYDHWGQGTQVTVSS,low polyreactivity
10,QVQLVESGGGLVQAGGSLRLSCAASGYIFGTYGMGWYRQAPGKERELVAGISRSGTSTYYADSVKGRFTISRDNAKNTVYLQMNSLKPEDTAVYYCAAVSRTRYEYWGQGTQVTVSS,high polyreactivity
11,QVQLVESGGGLVQAGGSLRLSCAASGYIFGWYAMGWYRQAPGKERELVATIDWSGDSTYYADSVKGRFTISRDNAKNTVYLQMNSLKPEDTAVYYCSAGVGYITYYGYDYWGQGTQVTVSS,low polyreactivity
12,QVQLVESGGGLVQAGGSLRLSCAASGYIFGYVMGWYRQAPGKERELVAAITYSSGNTYYADSVKGRFTISRDNAKNTVYLQMNSLKPEDTAVYYCAKQAYYKGRLAYGYWGQGTQVTVSS,high polyreactivity
13,QVQLVESGGGLVQAGGSLRLSCAASGYIFHRYAMGWYRQAPGKEREFVAAIRWSGGSTYYADSVKGRFTISRDNAKNTVYLQMNSLKPEDTAVYYCAADKYVLGYYYGQYDYWGQGTQVTVSS,low polyreactivity
14,QVQLVESGGGLVQAGGSLRLSCAASGYIFKYYAMGWYRQAPGKERELVAAISRSGDSTYYADSVKGRFTISRDNAKNTVYLQMNSLKPEATAVYYCKARYWHGPTGSDYWGQGTQVTVSS,high polyreactivity
15,QVQLVESGGGLVQAGGSLRLSCAASGYIFKYYAMGWYRQAPGKERELVATINYSGGGTYYADSVKGRFTISRDNAKNTVYLQMNRLKPEDTAVYYCAAREKYISYSYYYWGQCTQVTVSS,high polyreactivity
16,QVQLVESGGGLVQAGGSLRLSCAASGYIFLANAMGWYRQAPGKERELVAAITSGGGGTYYADSVKGRFTISRDNAKNTVYLQMNSLKPEDTAVYYCAADHGRDGSSFEYWGQGTQVTVSS,low polyreactivity
17,QVQLVESGGGLVQAGGSLRLSCAASGYIFLGNAMGWYRQAPGKERELVAAINSSGGSTYYADSVKGRFTISRDNAKNTVYLQMNSLKPEDTAVYYCATSDRDGIYVVPHMDYWGQGTQVTVSS,low polyreactivity
18,QVQLVESGGGLVQAGGSLRLSCAASGYIFLPYAMGWYRQAPGKERELVAAITSVGRTYYADSVKGRFTISRDNAKNTVYLQMNSLKPEDTAVYYCAAPRGHGKYYSWGQGTQVTVSS,high polyreactivity
19,QVQLVESGGGLVQAGGSLRLSCAASGYIFLVYAMGRSRHAPRKERELVASITRGTRTYYADSVKGRFTISRDNAKNTVYLQMNILKPEDSAVYYCAASQNIRDWFRFGYGSWGQGTQVTVSS,low polyreactivity
20,QVQLVESGGGLVQAGGSLRLSCAASGYIFNGNAMGWYRQAPGKERELVATITRRGGSTYYADSVKGRFTISRDNAKNTVYLQMNSLKPEDTAVYYCNKRDYSGDYYGPLDYWGQGTQVTVSS,high polyreactivity
